These results are taken from paper doi:10.1101/2022.04.27.489752.

Test [1] addresses CapH C-terminal domain (residues 67-107) with Ile99 to Met mutation, crystallised (E. coli MS115-1). Description: crystal structure.
In test [2] the target is CapH C-terminal domain (residues 67-107), crystallised (E. coli MS115-1). Briefly: crystal structure.
Test [3] has as its target MBP-fused CapH (I99M) mutant (E. coli MS115-1). Briefly: SEC-MALS.

For “CapH C-terminal domain (residues 67-107) with Ile99 to Met mutation, crystallised (domain or fragment)”, in test [1], the stoichiometry N is 2.
The substance “CapH C-terminal domain (residues 67-107), crystallised (domain or fragment)” displayed a stoichiometry N in test [2] of 4.
As to “MBP-fused CapH (I99M) mutant (natural protein)”, the stoichiometry N in test [3] was 2.
